Assay results: the supplement of paper PMC9112550, “Optimization of the antimicrobial peptide Bac7 by deep mutational scanning” (BMC Biology, 2022)

The sequences below were run on Escherichia coli TOP10 (assay: shrunken log2 fold change of peptide-encoding DNA abundance (4.5 h post-induction vs induction); higher = less antimicrobial activity (less host growth inhibition)). Conditions: time post-induction: 4.5 h; library: site-saturation at positions 5, 18, 19, 20.
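Further: peptides expressed intracellularly from a pBAD plasmid library in pooled LB shake-flask culture, induced with 0.3% L-arabinose, DNA abundance read by NGS, three biological replicates, DESeq2 with apeglm shrinkage.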

Going from RRIRVRPPRLPRPRPRPRHGPRP to RRIRRRPPRLPRPRPRPNDNPRP, the “shrunken log2 fold change” value falls from 0.176 to -0.301.

Going from RRIRDRPPRLPRPRPRPASNPRP to RRIRYRPPRLPRPRPRPTYAPRP, the “shrunken log2 fold change” value rises from -0.15 to 3.45.

First: RRIRKRPPRLPRPRPRPFFRPRP
Second: RRIRQRPPRLPRPRPRPDRNPRP
The “shrunken log2 fold change” value of the first is higher: 0.0596 for the first, -0.176 for the second.

RRIRVRPPRLPRPRPRPIDFPRP and RRIRVRPPRLPRPRPRPIQRPRP are within 0.2 log units of each other in “shrunken log2 fold change” value: -0.0311 for the first, -0.0384 for the second.

RRIRVRPPRLPRPRPRPPRCPRP and RRIRVRPPRLPRPRPRPTWDPRP are within 0.2 log units of each other in “shrunken log2 fold change” value: 0.324 for the first, 0.178 for the second.

Going from RRIRWRPPRLPRPRPRPSLSPRP to RRIRQRPPRLPRPRPRPNWWPRP, the “shrunken log2 fold change” value falls from 1.36 to 0.00333.

Compared with RRIRLRPPRLPRPRPRPLSIPRP, RRIRGRPPRLPRPRPRPKLHPRP is higher in “shrunken log2 fold change” value: -0.722 for the first, 0.64 for the second.

Compared with RRIRCRPPRLPRPRPRPGDYPRP, RRIRSRPPRLPRPRPRPPMWPRP is higher in “shrunken log2 fold change” value: -0.081 for the first, 0.54 for the second.

Going from RRIRSRPPRLPRPRPRPRDYPRP to RRIRCRPPRLPRPRPRPDPAPRP, the “shrunken log2 fold change” value rises from -0.341 to 0.412.

Compared with RRIRERPPRLPRPRPRPKGGPRP, RRIRMRPPRLPRPRPRPPESPRP is higher in “shrunken log2 fold change” value: -0.0194 for the first, 2.5 for the second.

RRIRDRPPRLPRPRPRPHIEPRP and RRIRMRPPRLPRPRPRPEIEPRP are within 0.2 log units of each other in “shrunken log2 fold change” value: 0.0695 for the first, 0.0729 for the second.

Compared with RRIRCRPPRLPRPRPRPPGVPRP, RRIRIRPPRLPRPRPRPRVTPRP is lower in “shrunken log2 fold change” value: 0.158 for the first, -0.0426 for the second.

First: RRIRIRPPRLPRPRPRPQHKPRP
Second: RRIRVRPPRLPRPRPRPPPSPRP
The “shrunken log2 fold change” value of the first is lower: -0.621 for the first, 0.897 for the second.

First: RRIRCRPPRLPRPRPRPPQEPRP
Second: RRIRERPPRLPRPRPRPYNAPRP
The “shrunken log2 fold change” value of the first is higher: -0.069 for the first, -1.26 for the second.

RRIRIRPPRLPRPRPRPWRAPRP and RRIRDRPPRLPRPRPRPTRMPRP are within 0.2 log units of each other in “shrunken log2 fold change” value: 0.0578 for the first, 0.154 for the second.

First: RRIRSRPPRLPRPRPRPRDAPRP
Second: RRIRMRPPRLPRPRPRPPQFPRP
The “shrunken log2 fold change” value of the first is higher: 0.328 for the first, 0.0882 for the second.

RRIRQRPPRLPRPRPRPVFEPRP and RRIRRRPPRLPRPRPRPRVVPRP are within 0.2 log units of each other in “shrunken log2 fold change” value: 0.0624 for the first, 0.215 for the second.

Going from RRIRMRPPRLPRPRPRPWVNPRP to RRIRVRPPRLPRPRPRPNMNPRP, the “shrunken log2 fold change” value falls from 0.0668 to -0.745.

RRIRDRPPRLPRPRPRPGRKPRP and RRIRHRPPRLPRPRPRPKGLPRP are within 0.2 log units of each other in “shrunken log2 fold change” value: 0.0333 for the first, 0.0749 for the second.

Going from RRIRKRPPRLPRPRPRPMPWPRP to RRIRQRPPRLPRPRPRPYPNPRP, the “shrunken log2 fold change” value falls from 0.321 to -0.0164.

RRIRPRPPRLPRPRPRPDREPRP and RRIRFRPPRLPRPRPRPMCTPRP are within 0.2 log units of each other in “shrunken log2 fold change” value: 0.0682 for the first, 0.0284 for the second.

Going from RRIRDRPPRLPRPRPRPRARPRP to RRIRQRPPRLPRPRPRPDEVPRP, the “shrunken log2 fold change” value falls from 0.601 to 0.0037.

First: RRIRHRPPRLPRPRPRPHLVPRP
Second: RRIRDRPPRLPRPRPRPLIKPRP
The “shrunken log2 fold change” value of the first is lower: -0.18 for the first, 0.153 for the second.

Compared with RRIRKRPPRLPRPRPRPFTYPRP, RRIRWRPPRLPRPRPRPSLAPRP is higher in “shrunken log2 fold change” value: -0.0389 for the first, 0.428 for the second.

Going from RRIRWRPPRLPRPRPRPAIMPRP to RRIRSRPPRLPRPRPRPDATPRP, the “shrunken log2 fold change” value rises from -0.211 to 0.816.

Compared with RRIRERPPRLPRPRPRPYQIPRP, RRIRARPPRLPRPRPRPTHDPRP is higher in “shrunken log2 fold change” value: -0.388 for the first, 0.645 for the second.

RRIRPRPPRLPRPRPRPCIHPRP and RRIRVRPPRLPRPRPRPHTRPRP are within 0.2 log units of each other in “shrunken log2 fold change” value: -0.252 for the first, -0.178 for the second.

First: RRIRRRPPRLPRPRPRPMLTPRP
Second: RRIRQRPPRLPRPRPRPKMSPRP
The “shrunken log2 fold change” value of the first is higher: 0.211 for the first, -0.101 for the second.

RRIRPRPPRLPRPRPRPERFPRP and RRIRKRPPRLPRPRPRPFDKPRP are within 0.2 log units of each other in “shrunken log2 fold change” value: -0.0264 for the first, 0.132 for the second.

Going from RRIRHRPPRLPRPRPRPTNPPRP to RRIRQRPPRLPRPRPRPLDYPRP, the “shrunken log2 fold change” value rises from -0.363 to 0.13.

Going from RRIRSRPPRLPRPRPRPTREPRP to RRIRWRPPRLPRPRPRPHREPRP, the “shrunken log2 fold change” value falls from 0.536 to -0.0345.

RRIRWRPPRLPRPRPRPTCWPRP and RRIRIRPPRLPRPRPRPQNCPRP are within 0.2 log units of each other in “shrunken log2 fold change” value: 0.183 for the first, -0.0145 for the second.

First: RRIRLRPPRLPRPRPRPMSSPRP
Second: RRIRYRPPRLPRPRPRPVHIPRP
The “shrunken log2 fold change” value of the first is higher: 0.0128 for the first, -0.526 for the second.

RRIRPRPPRLPRPRPRPKNSPRP and RRIRNRPPRLPRPRPRPESHPRP are within 0.2 log units of each other in “shrunken log2 fold change” value: -0.144 for the first, -0.0363 for the second.

Going from RRIRHRPPRLPRPRPRPAAIPRP to RRIRMRPPRLPRPRPRPTSAPRP, the “shrunken log2 fold change” value rises from 0.0732 to 0.74.

Going from RRIRIRPPRLPRPRPRPCWHPRP to RRIRYRPPRLPRPRPRPEHDPRP, the “shrunken log2 fold change” value rises from -0.428 to 0.0965.

Going from RRIRYRPPRLPRPRPRPSIPPRP to RRIRYRPPRLPRPRPRPNKWPRP, the “shrunken log2 fold change” value rises from -1.32 to 0.0191.

In the case of RRIRLRPPRLPRPRPRPYTCPRP, the “shrunken log2 fold change” value is reported as -0.223.
